Experiments:
hfCHC cells = assay: BrdU incorporation assay, human fetal choroidal cell proliferation; assay type: cell-based
hfRPE monolayers = assay: fluid transport (JV, TEP, RT) across hfRPE monolayers in modified Üssing chamber; assay type: cell-based, human
Description: Confluent monolayers of hfRPE cultured on transwells were mounted in a modified Üssing chamber and transepithelial water flow measurements (JV) were made with a capacitance probe technique as described previously in Maminishkis, A., et al., Invest Ophthalmol Vis Sci, 2006, 47, 3612-3624; Shi, G., et al., Invest Ophthalmol Vis Sci, 2008, 49, 4620-4630; Edelman, J. L., et al., Invest Ophthalmol Vis Sci, 1991, 32, 3033-3040; Jiang, C., et al., Science, 1993, 262, 424-427; and Maminishkis, A., et al., Invest Ophthalmol Vis Sci, 2002, 43, 3555-3566, each incorporated herein by reference in its entirety.
Tissue viability was ascertained by recording transepithelial potential (TEP) and total tissue resistance (RT). It should be noted that the solution composition changes in this chamber were relatively slow (≈1-2 chamber volumes per minute) and the data sampling rate was once per minute, more than two orders of magnitude slower than the sampling rate in the electrophysiology chamber (see below). Therefore it was not possible to record fast changes, in seconds or minutes, in JV, TEP, or RT. After addition of IFNγ to the apical or basal baths, steady-state JV, TEP, and RT were recorded for 20-30 minutes. In control experiments, successive additions of IFNγ were made to test for the repeatability and reversibility of responses. To block IFNγ effects, RPE cells were incubated for 30-60 minutes with a blocking antibody against IFNγ R1, JAK inhibitor I, PKA inhibitors (H-89, EMD Biosciences; RP-8-Br-cAMPS, Sigma-Aldrich), nitric oxide synthase inhibitor (aminoguanidine hydrochloride, Sigma-Aldrich), P38 MAPK inhibitors (SB203580 or SB20290), or CHX. Other components of this signaling pathway were studied using P38 MAPK inhibitors (SB203580 and SB202190). Relatively specific Cl channel inhibitors, CFTRinh-172 or DIDS (EMD Biosciences, La Jolla, Calif.), were used to block cAMP or Ca^2+-activated Cl channels; experiments with CFTRinh-172 were performed as described in Muanprasat, C., et al., J Gen Physiol, 2004, 124, 125-137, incorporated herein by reference in its entirety. In chronic experiments, paired hfRPE tissues with matched RT values were incubated for 4-24 hours with IFNγ or CHX. The subsequent changes in JV, RT, and TEP were measured in Ringer's solution or serum free cell culture media as previously described in Shi, G., et al., Invest Ophthalmol Vis Sci, 2008 and Maminishkis, A., et al., Invest Ophthalmol Vis Sci, 2006, 47, 3612-3624, each incorporated herein by reference in its entirety. Intracellular levels of NO were elevated with 1-Hydroxy-2-oxo-3-(3-aminopropyl)-3-isopropyl-1-triazene (NOC-5, Enzo Life Sciences, Plymouth, Pa.). 8-Br-cGMP was purchased from Sigma-Aldrich.

hfRPE cells = assay: JC-1 staining of mitochondrial membrane potential; assay type: cell-based, human
Method: Mitochondrial membrane potential change (w) was assessed in live hfRPE cells using the lipophilic cationic probe 5,5′,6,6′-tetrachloro-1,1′3,3′-tetraethylbenzimidazol-carbocyanine iodide (JC-1) following the manufacturer's instructions and as described in Voloboueva, L. A., et al., Invest Ophthalmol Vis Sci, 2005, 46, 4302-4310, incorporated herein by reference in its entirety. Confluent monolayers of hfRPE were treated with different concentrations of IFNγ (0.5, 5, 50 ng/ml) for 24, 48, or 72 hours and then incubated with JC-1 solution for 30 minutes at 37° C. Fluorescence was evaluated with a Zeiss Axiovert 25 inverted microscope.

hfRPE monolayer = assay: fluorescence imaging of intracellular calcium; assay type: cell-based, human; conditions: IFNγ 0.5, 5, 50 ng/ml both sides; n=4
Method: Therefore, whether the CFTR pathway was involved in the response to IFNγ was examined using cAMP assays as described in Example 8. Primary cultures of hfRPE cells were incubated in control media, in the presence of IFNγ (0.5, 5, or 50 ng/ml), or in forskolin containing media (10 μM) for different amounts of time (5 minutes, 45 minutes, 12 hours, or 24 hours), and then total intracellular cAMP levels were measured using a cAMP ELISA System (Applied Biosystems, Foster City, Calif.). […] (n=3; P<0.05). […] In a separate set of experiments, fluorescence imaging was used to measure the intracellular concentration of calcium [Ca^2+]I in the presence of IFNγ (0.5, 5, 50 ng/ml) added to both sides of the hfRPE monolayer and no change in total cell [Ca^2+]I was observed (n=4, data not shown).

B1: IFNγ: pleiotropic cytokine produced by T- and NK-cells; obtained from Peprotech (protein, UniProt P01579 24-161, looked up)
Interferon gamma: QDPYVKEAENLKKYFNAGHSDVADNGTLFLGILKNWKEESDRKIMQSQIVSFYFKLFKNFKDDQSIQKSVETIKEDMNVKFFNSNKKKRDDFEKLTNYSVTDLNVQRKAIHELIQVMAELSPAAKTGKRKRSQMLFRG
effect on hfCHC (human fetal choroidal) cell proliferation (hfCHC cells): stimulatory effect
mean JV after IFNγ (hfRPE monolayers; 10 experiments, from 12.9±1.6, mean±s.e.m.): 20.5±3.1 μl·cm^−2·hr^−1
TEP after 24 hour IFNγ (hfRPE monolayers; IFNγ 5 ng/ml apical and basal, 24 hours): no significant TEP changes
mean JV after 24 hour IFNγ (hfRPE monolayers; IFNγ 5 ng/ml apical and basal, 24 hours, control 7.6±1.5, 5 experiments): 15.2±2.0 μl·cm^−2·hr^−1
cell viability as measured by TEP and RT (hfRPE monolayers; IFNγ 5 ng/ml basal bath): no apparent changes
increase in JV (hfRPE monolayers; IFNγ 5 ng/ml in the basal bath, FIG. 14A): ~8.6 μl·cm^−2·hr^−1
RT after 24 hour IFNγ (hfRPE monolayers; IFNγ 5 ng/ml, 24 hours, from 592±80, n=5): 356±139 Ω·cm^2
effect on JV (hfRPE monolayers; IFNγ added to the apical bath): no significant effect
IFNγ-induced resistance change (hfRPE monolayers; at 24 hours): ≈ 2 fold
mean IFNγ-induced resistance change (hfRPE monolayers; at 24 hours): ≈ 240 Ω·cm^2
JV after subsequent addition of IFNγ (hfRPE monolayers; continued presence of Rp-8-Br-cAMPS 2 μM, six experiments): 8.4±1.7 μl·cm^−2·hr^−1
JV after subsequent addition of IFNγ (hfRPE monolayers; in presence of H-89, four experiments): 14.7±4.7 μl·cm^−2·hr^−1
mean JV after IFNγ (hfRPE monolayers; nine experiments (P38 series), from 7.5 ±1.9): 16.5±2.2 μl·cm^−2·hr^−1
mean JV after IFNγ (hfRPE monolayers; three experiments (H-89 series), from 8.4±1.6): 20.1±0.2 μl·cm^−2·hr^−1
mitochondrial membrane potential (JC-1) (hfRPE cells; 24 or 48 hour time points): no significant differences
mitochondrial membrane potential (JC-1 aggregate fluorescence) (hfRPE cells; IFNγ 0.5, 5, 50 ng/ml, 72 hours): dose-dependent decrease
total cell [Ca^2+]I (hfRPE monolayer): no change

Reference: patent US9486502B2, “Methods of administering interferon gamma to absorb fluid from the subretinal space” (The United States of America, as represented by the …, priority 2008, dated 2016)
